Results on two substances are retold here after article PMC8393709.

For experiment [1], the target named is HPV16 E6 Y43E/F47R, full length (RLuc- and YFP-tagged). The experiment is described as follows: BRET. Particulars: parent: est. 150; read off a plot.
Experiment [2] has as its target HPV16 E6N Y43E/F47R, amino acids 1 to 80 (RLuc- and YFP-tagged). As to the kind of experiment: BRET. The note with it: HEK 293T cells; RLuc- and YFP-tagged E6N fragments (amino acids 1 to 80); parent: est. 160; read off a plot.
For experiment [3] the target is unchanged. The experiment is described as follows: BRET binding curve. Particulars: HEK 293T cells; value at the highest YFP/RLuc point of each curve (mutant x about 860, E6N x about 880); non-specific level (E6N + UL44) about 65; parent: est. 250; read off a plot.

As to “HPV16 E6, wild-type, full length (RLuc-E6 and YFP-E6) (from UniProt P03126) Y43E; F47R”, the response in experiment [1] is 53 a.u. (mBR).
Take “HPV16 E6N, N-terminal domain of E6, amino acids 1 to 80 (RLuc-E6N and YFP-E6N) Y43E; F47R”: the response in experiment [2] was 70 a.u. (mBR); in experiment [3], 120 a.u. (mBR).
